Results reported in paper PMC6179994.

Molecular target: full-length rabbit TRPV5 (transient receptor potential vanilloid 5) (rabbit) (UniProt Q9XSM3)
Assay: cryo-EM structure; detergent solubilized TRPV5 (DMNG) incubated 1 h with 10 mM CaCl2 and rat CaM at 1:20 (TRPV5 tetramer:CaM), then SEC; map at 4.4 Å without applied symmetry

full-length rabbit TRPV5 (transient receptor potential vanilloid 5) (rabbit), sequence (Q9XSM3 whole entry): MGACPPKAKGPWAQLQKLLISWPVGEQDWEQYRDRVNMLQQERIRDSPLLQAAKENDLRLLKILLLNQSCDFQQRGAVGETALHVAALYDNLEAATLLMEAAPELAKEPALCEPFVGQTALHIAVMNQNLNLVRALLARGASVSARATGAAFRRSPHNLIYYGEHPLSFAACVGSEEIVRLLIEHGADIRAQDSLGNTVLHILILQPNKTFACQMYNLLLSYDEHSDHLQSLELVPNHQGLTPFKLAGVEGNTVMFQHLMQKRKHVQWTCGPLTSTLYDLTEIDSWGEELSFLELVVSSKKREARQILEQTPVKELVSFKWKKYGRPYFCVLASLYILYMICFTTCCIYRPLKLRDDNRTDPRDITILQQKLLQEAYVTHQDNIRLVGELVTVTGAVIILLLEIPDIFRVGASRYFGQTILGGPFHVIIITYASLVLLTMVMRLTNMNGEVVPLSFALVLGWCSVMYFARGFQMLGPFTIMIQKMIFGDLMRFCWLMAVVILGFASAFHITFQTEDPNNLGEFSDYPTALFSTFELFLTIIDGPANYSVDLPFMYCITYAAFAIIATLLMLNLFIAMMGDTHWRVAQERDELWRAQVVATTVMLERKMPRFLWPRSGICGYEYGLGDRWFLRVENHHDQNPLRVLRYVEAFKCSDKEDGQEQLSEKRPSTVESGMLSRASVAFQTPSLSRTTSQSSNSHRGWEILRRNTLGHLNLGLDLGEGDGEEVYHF

- stoichiometry N (CaM per TRPV5 tetramer): 1
Substance: rat calmodulin (CaM), calcium-activated (from UniProt P0DP29 1-149) (natural protein)
